From patent US20260146107A1 (ALLIGATOR BIOSCIENCE, published 2026)

Experiments:
[1] = molecular target: human CD40 expressed on cells (CD40 reporter cells, HEK Blue CD40L cells, primary B cells, tumour APCs) (human, UniProt P25942 21-277); test: cell-based or functional assay
[2] = molecular target: T1, biotinylated human CEACAM5-His (Acro Biosystems #CE5-H82E0) (human, UniProt P06731 35-685, biotinylated (site not stated)); test: Octet BLI, captured CEACAM5-biotin, bsAb in solution, 1:1 fit
T1 construct: also called CEACAM5-biotin; captured human CEACAM5-biotin; not shown: His tag
T1 sequence (looked up): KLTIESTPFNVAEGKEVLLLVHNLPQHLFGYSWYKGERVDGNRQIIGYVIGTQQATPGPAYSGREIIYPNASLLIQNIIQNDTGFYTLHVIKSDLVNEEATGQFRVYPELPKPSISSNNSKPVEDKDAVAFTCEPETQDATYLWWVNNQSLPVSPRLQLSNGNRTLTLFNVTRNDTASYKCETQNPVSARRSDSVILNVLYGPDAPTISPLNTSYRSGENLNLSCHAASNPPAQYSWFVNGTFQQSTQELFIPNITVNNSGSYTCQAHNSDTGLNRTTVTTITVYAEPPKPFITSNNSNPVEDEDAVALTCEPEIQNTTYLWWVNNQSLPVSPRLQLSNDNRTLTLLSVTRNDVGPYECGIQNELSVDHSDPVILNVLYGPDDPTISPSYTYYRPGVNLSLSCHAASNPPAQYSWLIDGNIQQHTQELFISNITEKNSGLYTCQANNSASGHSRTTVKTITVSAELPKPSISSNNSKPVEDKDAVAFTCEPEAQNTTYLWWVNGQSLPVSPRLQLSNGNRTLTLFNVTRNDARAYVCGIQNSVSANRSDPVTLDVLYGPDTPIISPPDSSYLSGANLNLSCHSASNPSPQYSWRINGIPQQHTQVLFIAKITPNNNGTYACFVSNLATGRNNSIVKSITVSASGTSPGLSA
Description: Kinetic measurements were performed in the Octet RED96 platform using several different setups. […] Monomeric human CD40-His-Avi tag (Acro Biosystems #CD0-H5228), monomeric Human CEACAM5-His (R&D Systems #4128-CM-050) or monomeric Cynomolgus CEACAM5-His (Sino Biological #90891-C08H) were ½ serially diluted in 1× kinetic buffer (Sartorius) starting at 500 nM or 100 nM. […] Binding kinetics was studied in 1× kinetic buffer where association was allowed for 100 sec, 300 sec or 600 sec followed by dissociation for 100 sec, 300 sec or 3600 sec. Sensor tips were regenerated with 10 mM Glycine pH 1.7. Data generated were referenced by subtracting blank or parallel buffer blank, the baseline was aligned to the y-axis, inter-step correction by alignment against dissociation was performed and the data was smoothed by Savitzky-Golay filter in the data analysis software (v9.0.0.14). The processed data was fitted using a 1:1 Langmuir binding model with R² or X² as a measurement of fitting accuracy.
Association was measured for 100 sec and dissociation measured for 100 sec.

[3] = molecular target: T2, human CEACAM5 expressed on cells (CHO-CEACAM5 transfectants; MKN45 and LS174T tumour cells) (human, UniProt P06731 35-685); test: flow cytometry on CHO-CEACAM5 cells, fluorochrome-conjugated anti-human IgG, MFI
T2 construct: whole, on cells; also called CEACAM5 on cells; hCEA
T2 sequence (looked up): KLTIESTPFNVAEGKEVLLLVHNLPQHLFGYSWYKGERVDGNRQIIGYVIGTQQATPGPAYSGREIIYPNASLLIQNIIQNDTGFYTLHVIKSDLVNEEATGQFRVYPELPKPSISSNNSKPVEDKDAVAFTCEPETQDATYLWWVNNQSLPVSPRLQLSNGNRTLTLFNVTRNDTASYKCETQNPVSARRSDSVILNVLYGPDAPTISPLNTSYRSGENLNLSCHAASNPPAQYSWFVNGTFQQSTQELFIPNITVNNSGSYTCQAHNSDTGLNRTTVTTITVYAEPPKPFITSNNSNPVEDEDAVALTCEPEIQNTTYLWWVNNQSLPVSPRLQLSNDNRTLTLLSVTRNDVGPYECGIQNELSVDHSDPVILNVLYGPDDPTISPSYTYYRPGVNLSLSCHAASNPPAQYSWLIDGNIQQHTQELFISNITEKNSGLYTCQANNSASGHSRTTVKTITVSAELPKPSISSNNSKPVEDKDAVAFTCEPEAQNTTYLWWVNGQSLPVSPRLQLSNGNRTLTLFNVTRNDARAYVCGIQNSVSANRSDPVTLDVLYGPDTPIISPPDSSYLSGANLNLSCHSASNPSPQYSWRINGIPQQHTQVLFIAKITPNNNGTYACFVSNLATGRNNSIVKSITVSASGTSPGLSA
Source text: (§1) The human CEACAM5 and CEACAM1 genes were cloned into pcDNA3.1, and the vector was subsequently stably transfected into CHO cells. […] Binding of the antibodies was detected using fluorochrome-conjugated anti-human IgG and analyzed using flow cytometry.

[4] = molecular target: T3, human CEACAM1 expressed on CHO cells (human, UniProt P13688 35-526); test: flow cytometry on CHO-CEACAM1 cells, fluorochrome-conjugated anti-human IgG, MFI
T3 construct: whole, on cells; also called CHO-CEACAM1; CEACAM1 on cells
T3 sequence (looked up): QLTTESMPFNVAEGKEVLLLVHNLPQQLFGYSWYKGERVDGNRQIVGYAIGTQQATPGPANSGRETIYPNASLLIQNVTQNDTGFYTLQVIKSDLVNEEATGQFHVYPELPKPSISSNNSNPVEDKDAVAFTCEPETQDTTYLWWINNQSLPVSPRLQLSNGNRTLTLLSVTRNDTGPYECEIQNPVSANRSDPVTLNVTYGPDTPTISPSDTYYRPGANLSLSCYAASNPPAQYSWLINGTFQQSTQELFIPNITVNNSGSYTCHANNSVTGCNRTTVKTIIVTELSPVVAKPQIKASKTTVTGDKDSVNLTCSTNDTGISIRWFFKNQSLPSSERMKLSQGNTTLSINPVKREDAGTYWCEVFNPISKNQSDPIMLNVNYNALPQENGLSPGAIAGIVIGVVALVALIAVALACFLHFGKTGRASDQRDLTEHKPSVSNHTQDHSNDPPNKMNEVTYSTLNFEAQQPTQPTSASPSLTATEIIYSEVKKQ
Source text: as §1

[5] = molecular target: T4, human CEACAM5, recombinant (R&D Systems #4128-CM-050) (human, UniProt P06731 35-685); test: ELISA, antigen coated at 0.5 µg/mL, bsAb titrated, anti-human kappa-HRP, luminescence
T4 construct: Bought; coated in ELISA and used as monomeric analyte in Octet; also called hCEACAM-5; Human CEACAM5-His; not shown: His tag
T4 sequence (looked up): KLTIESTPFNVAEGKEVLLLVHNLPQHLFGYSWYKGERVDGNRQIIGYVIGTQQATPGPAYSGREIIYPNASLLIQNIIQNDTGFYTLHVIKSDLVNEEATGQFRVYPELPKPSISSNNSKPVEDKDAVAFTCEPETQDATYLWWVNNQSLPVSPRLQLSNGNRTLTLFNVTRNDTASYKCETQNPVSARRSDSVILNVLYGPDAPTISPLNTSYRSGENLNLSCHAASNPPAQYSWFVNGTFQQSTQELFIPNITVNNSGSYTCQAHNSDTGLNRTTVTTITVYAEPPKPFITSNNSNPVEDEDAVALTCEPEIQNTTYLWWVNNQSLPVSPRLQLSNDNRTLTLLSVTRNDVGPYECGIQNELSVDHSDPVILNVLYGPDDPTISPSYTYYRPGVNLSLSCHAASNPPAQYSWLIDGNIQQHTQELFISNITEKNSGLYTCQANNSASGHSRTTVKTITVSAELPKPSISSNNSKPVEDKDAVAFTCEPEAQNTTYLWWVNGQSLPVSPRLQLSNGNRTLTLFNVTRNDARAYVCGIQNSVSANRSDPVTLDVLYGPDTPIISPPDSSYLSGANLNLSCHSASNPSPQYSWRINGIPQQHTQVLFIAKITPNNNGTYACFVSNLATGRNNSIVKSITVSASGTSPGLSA

[6] = molecular target: T5, human CEACAM6, recombinant (R&D Systems #3934-CM-050) (human, UniProt P40199 35-320); test: as above
T5 construct: also called hCEACAM-6
T5 sequence (looked up): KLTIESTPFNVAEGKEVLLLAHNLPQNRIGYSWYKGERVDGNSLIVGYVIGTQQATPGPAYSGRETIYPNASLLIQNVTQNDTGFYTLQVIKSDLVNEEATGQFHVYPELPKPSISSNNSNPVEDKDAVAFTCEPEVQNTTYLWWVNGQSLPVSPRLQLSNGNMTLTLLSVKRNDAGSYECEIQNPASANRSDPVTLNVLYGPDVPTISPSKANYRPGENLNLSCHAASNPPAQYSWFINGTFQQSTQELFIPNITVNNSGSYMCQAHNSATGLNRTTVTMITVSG

[7] = molecular target: T6, CEACAM-8, recombinant (R&D Systems #9639-CM-050) (UniProt P31997 35-320); test: as above
T6 sequence (looked up): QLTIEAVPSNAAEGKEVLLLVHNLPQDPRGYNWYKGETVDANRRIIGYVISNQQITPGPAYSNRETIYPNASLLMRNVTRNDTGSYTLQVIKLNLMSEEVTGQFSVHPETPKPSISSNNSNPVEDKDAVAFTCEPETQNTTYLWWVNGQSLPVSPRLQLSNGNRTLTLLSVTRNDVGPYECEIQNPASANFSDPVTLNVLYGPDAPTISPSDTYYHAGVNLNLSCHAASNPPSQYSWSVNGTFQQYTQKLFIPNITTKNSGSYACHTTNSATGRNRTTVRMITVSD

[8] = molecular target: T4, human CEACAM5, recombinant (R&D Systems …); test: dual-target ELISA: hCEACAM-5 coated, bsAb titrated, detected with biotinylated hCD40-muIg and streptavidin-HRP, luminescence; signal needs both targets bound

Chain of human CD40 expressed on cells (CD40 reporter cells, HEK Blue CD40L cells, primary B cells, tumour APCs) (P25942 21-277): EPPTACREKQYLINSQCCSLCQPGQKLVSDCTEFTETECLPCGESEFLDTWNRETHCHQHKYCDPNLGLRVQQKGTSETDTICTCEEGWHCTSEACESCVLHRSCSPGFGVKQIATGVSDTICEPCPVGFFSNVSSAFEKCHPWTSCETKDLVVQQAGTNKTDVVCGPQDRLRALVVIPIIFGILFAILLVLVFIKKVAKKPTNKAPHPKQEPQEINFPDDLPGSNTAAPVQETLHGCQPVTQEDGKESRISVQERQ

B1: Multi41 (bispecific antibody)
heavy 1: not shown
light: DIQMTQSPSSLSASVGDRVTITCRASQSISSYLNWYQEKPGKAPKLLIYAASSLQSGVPSRFSGSGSGTDFTLTISSLQPEDFATYYCQQWRSHLFTFGQGTKLEIKRTVAAPSVFIFPPSDEQLKSGTASVVCYLNNFYPREAKVQWKVDNALQSGNSQESVTEQDSKDSTYSLWSTLTLSKADYEKHKVYACEVTHQGLSSPVTKSFNRGEC
heavy 2: EVQLLESGGGLVQPGGSLRLSCAASGFTFSTYGMHWVREAPGKGLEWLSYISGGSSYIFYADSVKGRFTISRDNSKNTLYLQMNSLRAEDTAVYYCARILRGGSGMDLWGQGTLVTVSSASTKGPSVFPLAPSSKSTSGGTAALGCLVKDYFPEPVTVSWNSGALTSGVHTFPAVLQSSGLYSLTSVVEVPSSSLGTQTYICNVNHKPSNTKVDKKVEPKSC
notes: Optimised RUBY format, CEACAM5xCD40; copies: 2 + 2 + 2
EC50 of SEAP release, HEK Blue CD40L reporter cells, bsAb crosslinked to CHO-CEACAM5 cells, 0 Raji sink cells/well [1]: 0.03 nM
EC50 of SEAP release, same assay, 10 000 Raji sink cells/well [1]: 0.06 nM
EC50 of SEAP release, same assay, 30 000 Raji sink cells/well [1]: 0.13 nM
EC50 of SEAP release, same assay, 90 000 Raji sink cells/well [1]: 0.36 nM
Kd [2]: < 0.001 nM
koff [2]: < 1e-07 s⁻¹
kon [2]: 47000 M⁻¹ s⁻¹
EC50 (read off the curve) [3]: ~3 nM
binding result [4]: no binding (tested: about 400 nM)
EC50 (read off the curve) [5]: ~0.5 nM
binding result [6]: no binding (tested: 100 nM)
binding result [7]: no binding (tested: 100 nM)
EC50 (read off the curve) [8]: ~0.6 nM
